The values that follow come from publication PMC8106667 (Molecular cell, 2021).

T1: MBP-GFP-ORC1 wild type, full length (human, UniProt Q13415 1-861)
T1 sequence (looked up): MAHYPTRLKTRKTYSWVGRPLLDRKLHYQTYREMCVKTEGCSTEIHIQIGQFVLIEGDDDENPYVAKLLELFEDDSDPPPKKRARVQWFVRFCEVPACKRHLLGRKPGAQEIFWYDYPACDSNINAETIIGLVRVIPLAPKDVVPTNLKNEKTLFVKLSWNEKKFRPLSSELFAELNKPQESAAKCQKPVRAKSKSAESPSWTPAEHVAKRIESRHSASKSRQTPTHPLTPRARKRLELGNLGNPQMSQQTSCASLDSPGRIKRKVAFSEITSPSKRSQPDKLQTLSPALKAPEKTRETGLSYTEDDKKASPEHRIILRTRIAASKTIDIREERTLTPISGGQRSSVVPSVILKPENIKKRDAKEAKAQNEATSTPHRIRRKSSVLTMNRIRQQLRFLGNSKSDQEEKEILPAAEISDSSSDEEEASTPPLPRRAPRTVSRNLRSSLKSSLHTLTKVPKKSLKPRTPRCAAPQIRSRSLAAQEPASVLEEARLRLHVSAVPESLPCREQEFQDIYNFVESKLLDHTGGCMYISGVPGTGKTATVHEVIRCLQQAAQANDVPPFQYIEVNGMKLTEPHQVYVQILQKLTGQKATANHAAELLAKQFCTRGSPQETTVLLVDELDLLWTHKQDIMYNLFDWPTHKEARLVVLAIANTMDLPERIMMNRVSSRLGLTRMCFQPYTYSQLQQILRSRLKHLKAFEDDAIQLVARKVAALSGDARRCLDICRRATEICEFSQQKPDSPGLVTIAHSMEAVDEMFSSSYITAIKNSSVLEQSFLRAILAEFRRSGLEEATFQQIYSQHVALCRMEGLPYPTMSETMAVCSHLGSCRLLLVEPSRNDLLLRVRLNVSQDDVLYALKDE

B1: GST-CDC6 Δ21–30 (natural protein, human, UniProt Q99741 1-560, looked up)
chain: MPQTRSQAQATISFPKRKLSDAKLEPTNVQTVTCSPRVKALPLSPRKRLGDDNLCNTPHLPPCSPPKQGKKENGPPHSHTLKGRRLVFDNQLTIKSPSKRELAKVHQNKILSSVRKSQEITTNSEQRCPLKKESACVRLFKQEGTCYQQAKLVLNTAVPDRLPAREREMDVIRNFLREHICGKKAGSLYLSGAPGTGKTACLSRILQDLKKELKGFKTIMLNCMSLRTAQAVFPAIAQEICQEEVSRPAGKDMMRKLEKHMTAEKGPMIVLVLDEMDQLDSKGQDVLYTLFEWPWLSNSHLVLIGIANTLDLTDRILPRLQAREKCKPQLLNFPPYTRNQIVTILQDRLNQVSRDQVLDNAAVQFCARKVSAVSGDVRKALDVCRRAIEIVESDVKSQTILKPLSECKSPSEPLIPKRVGLIHISQVISEVDGNRMTLSQEGAQDSFPLQQKILVCSLMLLIRQLKIKEVTLGKLYEAYSKVCRKQQVAAVDQSECLSLSGLLEARGILGLKRNKETRLTKVFFKIEEKEIEHALKDKALIGNILATGLP
B2: GST-CDC6 1–110 (domain or fragment, human, UniProt Q99741 1-110, looked up)
chain: MPQTRSQAQATISFPKRKLSRALNKAKNSSDAKLEPTNVQTVTCSPRVKALPLSPRKRLGDDNLCNTPHLPPCSPPKQGKKENGPPHSHTLKGRRLVFDNQLTIKSPSKR
B3: GST-CDC6 Δ51–70 (natural protein, human, UniProt Q99741 1-560, looked up)
chain: MPQTRSQAQATISFPKRKLSRALNKAKNSSDAKLEPTNVQTVTCSPRVKAPPCSPPKQGKKENGPPHSHTLKGRRLVFDNQLTIKSPSKRELAKVHQNKILSSVRKSQEITTNSEQRCPLKKESACVRLFKQEGTCYQQAKLVLNTAVPDRLPAREREMDVIRNFLREHICGKKAGSLYLSGAPGTGKTACLSRILQDLKKELKGFKTIMLNCMSLRTAQAVFPAIAQEICQEEVSRPAGKDMMRKLEKHMTAEKGPMIVLVLDEMDQLDSKGQDVLYTLFEWPWLSNSHLVLIGIANTLDLTDRILPRLQAREKCKPQLLNFPPYTRNQIVTILQDRLNQVSRDQVLDNAAVQFCARKVSAVSGDVRKALDVCRRAIEIVESDVKSQTILKPLSECKSPSEPLIPKRVGLIHISQVISEVDGNRMTLSQEGAQDSFPLQQKILVCSLMLLIRQLKIKEVTLGKLYEAYSKVCRKQQVAAVDQSECLSLSGLLEARGILGLKRNKETRLTKVFFKIEEKEIEHALKDKALIGNILATGLP
B4: GST-CDC6 triple mutant (K92A, R94A and R95A) (natural protein, human, UniProt Q99741 1-560, looked up)
chain: MPQTRSQAQATISFPKRKLSRALNKAKNSSDAKLEPTNVQTVTCSPRVKALPLSPRKRLGDDNLCNTPHLPPCSPPKQGKKENGPPHSHTLAGAALVFDNQLTIKSPSKRELAKVHQNKILSSVRKSQEITTNSEQRCPLKKESACVRLFKQEGTCYQQAKLVLNTAVPDRLPAREREMDVIRNFLREHICGKKAGSLYLSGAPGTGKTACLSRILQDLKKELKGFKTIMLNCMSLRTAQAVFPAIAQEICQEEVSRPAGKDMMRKLEKHMTAEKGPMIVLVLDEMDQLDSKGQDVLYTLFEWPWLSNSHLVLIGIANTLDLTDRILPRLQAREKCKPQLLNFPPYTRNQIVTILQDRLNQVSRDQVLDNAAVQFCARKVSAVSGDVRKALDVCRRAIEIVESDVKSQTILKPLSECKSPSEPLIPKRVGLIHISQVISEVDGNRMTLSQEGAQDSFPLQQKILVCSLMLLIRQLKIKEVTLGKLYEAYSKVCRKQQVAAVDQSECLSLSGLLEARGILGLKRNKETRLTKVFFKIEEKEIEHALKDKALIGNILATGLP
B5: GST-CDC6 Δ71–90 (natural protein, human, UniProt Q99741 1-560, looked up)
chain: MPQTRSQAQATISFPKRKLSRALNKAKNSSDAKLEPTNVQTVTCSPRVKALPLSPRKRLGDDNLCNTPHLLKGRRLVFDNQLTIKSPSKRELAKVHQNKILSSVRKSQEITTNSEQRCPLKKESACVRLFKQEGTCYQQAKLVLNTAVPDRLPAREREMDVIRNFLREHICGKKAGSLYLSGAPGTGKTACLSRILQDLKKELKGFKTIMLNCMSLRTAQAVFPAIAQEICQEEVSRPAGKDMMRKLEKHMTAEKGPMIVLVLDEMDQLDSKGQDVLYTLFEWPWLSNSHLVLIGIANTLDLTDRILPRLQAREKCKPQLLNFPPYTRNQIVTILQDRLNQVSRDQVLDNAAVQFCARKVSAVSGDVRKALDVCRRAIEIVESDVKSQTILKPLSECKSPSEPLIPKRVGLIHISQVISEVDGNRMTLSQEGAQDSFPLQQKILVCSLMLLIRQLKIKEVTLGKLYEAYSKVCRKQQVAAVDQSECLSLSGLLEARGILGLKRNKETRLTKVFFKIEEKEIEHALKDKALIGNILATGLP
B6: GST-CDC6 Δ11–20 (natural protein, human, UniProt Q99741 1-560, looked up)
chain: B1 chain with T11R, I12A, S13L, F14N, P15K, K16A, R17K, K18N, L19S
B7: MBP-ORC1 wild type, full length (natural protein, human, UniProt Q13415 1-861, looked up)
chain: T1 sequence (looked up)
B8: MBP-ORC1 R105Q (natural protein, human, UniProt Q13415 1-861, looked up)
chain: T1 sequence (looked up) with R105Q
B9: MBP-ORC1 R720Q (natural protein, human, UniProt Q13415 1-861, looked up)
chain: T1 sequence (looked up) with R720Q
B10: MBP-ORC1 R105Q, R720Q (natural protein, human, UniProt Q13415 1-861, looked up)
chain: T1 sequence (looked up) with R105Q, R720Q
B11: MBP-ORC1^235ARA^237 (MBP-ORC1 A-A), full length (natural protein, human, UniProt Q13415 1-861, looked up)
chain: T1 sequence (looked up) with K235A, L237A

Residue numbers refer to the chain shown, from its start. Names may count otherwise.

The first assay concerns the target B7. Description: pull-down.
Take B1: the binding result is reported as “binds”.

For B2, the binding result is “binds”.

Take B3: the binding result is listed as “binds”.

On to B4, for which the binding result is listed as “binds”.

In the case of B5, the binding result was “binds”.

Turning to B6, the binding result is “binds”.

The next assay has as its target T1, MBP-GFP-ORC1 wild type, full length. Put plainly: pull-down.
Take B7: the binding result is listed as “binds”.

For the molecule B8, the binding result is reported as “binds”.

For B9, the binding result is recorded as “binds”.

Turning to B10, the binding result was “binds”.

For B11, the binding result is reported as “binds”.
